According to the supplement of paper PMC10567573:

B1: ZNF649 (parent)
chain: DECEKAYFYMSCLVKHKRIHSREK
B2: RAB11B (parent)
chain: AVPTDEARAFAEKNNLSFIETSAL

Variants of: B1
Experiment: protein stability index of a GFP-peptide fusion (GPS, HEK-293T) (PSI 1-6); higher = more stable
Details: c terminus: a fixed tail appended
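Note: lentivirally expressed fusions sorted by FACS into six bins by GFP to DsRed ratio, PSI derived from sequencing read proportions per bin multiplied by bin number.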

Question: With LECEKAYFYMSCLVKHKRIHSREK [D1L] as the variant, how does the protein stability index read?
Answer: 1.98

Question: For CECEKAYFYMSCLVKHKRIHSREK [D1C], which protein stability index is on record?
Answer: 1.98

Question: With AECEKAYFYMSCLVKHKRIHSREK [D1A] as the variant, how does the protein stability index read?
Answer: 2.41

Question: With TECEKAYFYMSCLVKHKRIHSREK [D1T] as the variant, how does the protein stability index read?
Answer: 2.9

Question: Which protein stability index does the source give for VECEKAYFYMSCLVKHKRIHSREK [D1V] here?
Answer: 1.57

Question: With YECEKAYFYMSCLVKHKRIHSREK [D1Y] as the variant, how does the protein stability index read?
Answer: 2.17

Question: For PECEKAYFYMSCLVKHKRIHSREK [D1P], which protein stability index is on record?
Answer: 2.44

Question: Which protein stability index does the source give for IECEKAYFYMSCLVKHKRIHSREK [D1I] here?
Answer: 1.98

Question: For FECEKAYFYMSCLVKHKRIHSREK [D1F], which protein stability index is on record?
Answer: 1.98

Question: For EECEKAYFYMSCLVKHKRIHSREK [D1E], which protein stability index is on record?
Answer: 2.47

Question: With HECEKAYFYMSCLVKHKRIHSREK [D1H] as the variant, how does the protein stability index read?
Answer: 2.61

Question: For SECEKAYFYMSCLVKHKRIHSREK [D1S], which protein stability index is on record?
Answer: 2.81

Question: With RECEKAYFYMSCLVKHKRIHSREK [D1R] as the variant, how does the protein stability index read?
Answer: 2.03

Question: With QECEKAYFYMSCLVKHKRIHSREK [D1Q] as the variant, how does the protein stability index read?
Answer: 2.44

Question: With WECEKAYFYMSCLVKHKRIHSREK [D1W] as the variant, how does the protein stability index read?
Answer: 2.2

Question: With NECEKAYFYMSCLVKHKRIHSREK [D1N] as the variant, how does the protein stability index read?
Answer: 2.72

Question: With GECEKAYFYMSCLVKHKRIHSREK [D1G] as the variant, how does the protein stability index read?
Answer: 1.92

Question: For KECEKAYFYMSCLVKHKRIHSREK [D1K], which protein stability index is on record?
Answer: 2

Question: For MECEKAYFYMSCLVKHKRIHSREK [D1M], which protein stability index is on record?
Answer: 2.06

Question: Which protein stability index does the source give for DRCEKAYFYMSCLVKHKRIHSREK [E2R] here?
Answer: 2.08

Question: Which protein stability index does the source give for DDCEKAYFYMSCLVKHKRIHSREK [E2D] here?
Answer: 2.21

Question: Which protein stability index does the source give for DLCEKAYFYMSCLVKHKRIHSREK [E2L] here?
Answer: 2.25

Question: Which protein stability index does the source give for DICEKAYFYMSCLVKHKRIHSREK [E2I] here?
Answer: 1.71

Question: With DCCEKAYFYMSCLVKHKRIHSREK [E2C] as the variant, how does the protein stability index read?
Answer: 1.52

Question: Which protein stability index does the source give for DSCEKAYFYMSCLVKHKRIHSREK [E2S] here?
Answer: 1.72

Question: Which protein stability index does the source give for DHCEKAYFYMSCLVKHKRIHSREK [E2H] here?
Answer: 2.03

Question: With DNCEKAYFYMSCLVKHKRIHSREK [E2N] as the variant, how does the protein stability index read?
Answer: 2.62

Question: Which protein stability index does the source give for DQCEKAYFYMSCLVKHKRIHSREK [E2Q] here?
Answer: 2.49

Question: Which protein stability index does the source give for DFCEKAYFYMSCLVKHKRIHSREK [E2F] here?
Answer: 2.82

Question: For DKCEKAYFYMSCLVKHKRIHSREK [E2K], which protein stability index is on record?
Answer: 2.17

Question: With DGCEKAYFYMSCLVKHKRIHSREK [E2G] as the variant, how does the protein stability index read?
Answer: 2.29

Question: Which protein stability index does the source give for DMCEKAYFYMSCLVKHKRIHSREK [E2M] here?
Answer: 1.41

Question: For DACEKAYFYMSCLVKHKRIHSREK [E2A], which protein stability index is on record?
Answer: 2.17

Question: For DPCEKAYFYMSCLVKHKRIHSREK [E2P], which protein stability index is on record?
Answer: 2.21

Variants of: B2
Experiment: as above
Details: c terminus: a fixed tail appended

Question: With AVPTDEARAFAEKNNLLFIETSAL [S17L] as the variant, how does the protein stability index read?
Answer: 2.77

Question: With AVPTDEARAFAEKNNLNFIETSAL [S17N] as the variant, how does the protein stability index read?
Answer: 2.86

Question: With AVPTDEARAFAEKNNLQFIETSAL [S17Q] as the variant, how does the protein stability index read?
Answer: 4.23

Question: For AVPTDEARAFAEKNNLFFIETSAL [S17F], which protein stability index is on record?
Answer: 2.59

Question: With AVPTDEARAFAEKNNLHFIETSAL [S17H] as the variant, how does the protein stability index read?
Answer: 3.07

Question: For AVPTDEARAFAEKNNLCFIETSAL [S17C], which protein stability index is on record?
Answer: 3

Question: For AVPTDEARAFAEKNNLVFIETSAL [S17V], which protein stability index is on record?
Answer: 3.15

Question: For AVPTDEARAFAEKNNLPFIETSAL [S17P], which protein stability index is on record?
Answer: 4.19

Question: For AVPTDEARAFAEKNNLKFIETSAL [S17K], which protein stability index is on record?
Answer: 3.79

Question: For AVPTDEARAFAEKNNLDFIETSAL [S17D], which protein stability index is on record?
Answer: 3.48

Question: Which protein stability index does the source give for AVPTDEARAFAEKNNLEFIETSAL [S17E] here?
Answer: 4.62

Question: Which protein stability index does the source give for AVPTDEARAFAEKNNLIFIETSAL [S17I] here?
Answer: 2.89

Question: With AVPTDEARAFAEKNNLAFIETSAL [S17A] as the variant, how does the protein stability index read?
Answer: 2.78

Question: Which protein stability index does the source give for AVPTDEARAFAEKNNLWFIETSAL [S17W] here?
Answer: 2.64

Question: For AVPTDEARAFAEKNNLGFIETSAL [S17G], which protein stability index is on record?
Answer: 3.7

Question: Which protein stability index does the source give for AVPTDEARAFAEKNNLYFIETSAL [S17Y] here?
Answer: 2.85

Question: For AVPTDEARAFAEKNNLTFIETSAL [S17T], which protein stability index is on record?
Answer: 2.93

Question: With AVPTDEARAFAEKNNLMFIETSAL [S17M] as the variant, how does the protein stability index read?
Answer: 3.1

Question: With AVPTDEARAFAEKNNLRFIETSAL [S17R] as the variant, how does the protein stability index read?
Answer: 3.41

Question: For AVPTDEARAFAEKNNLSFIETSFL [A23F], which protein stability index is on record?
Answer: 2.14

Question: With AVPTDEARAFAEKNNLSFIETSQL [A23Q] as the variant, how does the protein stability index read?
Answer: 2.86

Question: For AVPTDEARAFAEKNNLSFIETSKL [A23K], which protein stability index is on record?
Answer: 3.28

Question: Which protein stability index does the source give for AVPTDEARAFAEKNNLSFIETSIL [A23I] here?
Answer: 2.09

Question: With AVPTDEARAFAEKNNLSFIETSNL [A23N] as the variant, how does the protein stability index read?
Answer: 2.88

Question: Which protein stability index does the source give for AVPTDEARAFAEKNNLSFIETSLL [A23L] here?
Answer: 2.4

Question: Which protein stability index does the source give for AVPTDEARAFAEKNNLSFIETSDL [A23D] here?
Answer: 4.11

Question: Which protein stability index does the source give for AVPTDEARAFAEKNNLSFIETSGL [A23G] here?
Answer: 3.96

Question: For AVPTDEARAFAEKNNLSFIETSCL [A23C], which protein stability index is on record?
Answer: 2.9

Question: For AVPTDEARAFAEKNNLSFIETSWL [A23W], which protein stability index is on record?
Answer: 2.15

Question: Which protein stability index does the source give for AVPTDEARAFAEKNNLSFIETSEL [A23E] here?
Answer: 4.41

Question: For AVPTDEARAFAEKNNLSFIETSML [A23M], which protein stability index is on record?
Answer: 2.3

Question: For AVPTDEARAFAEKNNLSFIETSSL [A23S], which protein stability index is on record?
Answer: 3.38

Question: For AVPTDEARAFAEKNNLSFIETSYL [A23Y], which protein stability index is on record?
Answer: 2.43

Question: Which protein stability index does the source give for AVPTDEARAFAEKNNLSFIETSVL [A23V] here?
Answer: 1.75

Question: For AVPTDEARAFAEKNNLSFIETSPL [A23P], which protein stability index is on record?
Answer: 2.86

Question: With AVPTDEARAFAEKNNLSFIETSHL [A23H] as the variant, how does the protein stability index read?
Answer: 2.62

Question: For AVPTDEARAFAEKNNLSFIETSRL [A23R], which protein stability index is on record?
Answer: 2.47

Question: Which protein stability index does the source give for AVPTDEARAFAEKNNLSFIETSTL [A23T] here?
Answer: 2.77

Question: For AVPTDEARAFAEKNNLSFKETSAL [I19K], which protein stability index is on record?
Answer: 4.79

Question: Which protein stability index does the source give for AVPTDEARAFAEKNNLSFFETSAL [I19F] here?
Answer: 4.37

Question: With AVPTDEARAFAEKNNLSFVETSAL [I19V] as the variant, how does the protein stability index read?
Answer: 3.26

Question: With AVPTDEARAFAEKNNLSFYETSAL [I19Y] as the variant, how does the protein stability index read?
Answer: 3.73

Question: Which protein stability index does the source give for AVPTDEARAFAEKNNLSFEETSAL [I19E] here?
Answer: 4.59

Question: Which protein stability index does the source give for AVPTDEARAFAEKNNLSFGETSAL [I19G] here?
Answer: 4.64

Question: With AVPTDEARAFAEKNNLSFPETSAL [I19P] as the variant, how does the protein stability index read?
Answer: 5.04

Question: Which protein stability index does the source give for AVPTDEARAFAEKNNLSFNETSAL [I19N] here?
Answer: 4.1

Question: Which protein stability index does the source give for AVPTDEARAFAEKNNLSFWETSAL [I19W] here?
Answer: 3.62

Question: Which protein stability index does the source give for AVPTDEARAFAEKNNLSFCETSAL [I19C] here?
Answer: 4.34

Question: With AVPTDEARAFAEKNNLSFHETSAL [I19H] as the variant, how does the protein stability index read?
Answer: 3.49

Question: For AVPTDEARAFAEKNNLSFSETSAL [I19S], which protein stability index is on record?
Answer: 4.56

Question: For AVPTDEARAFAEKNNLSFMETSAL [I19M], which protein stability index is on record?
Answer: 4.21

Question: For AVPTDEARAFAEKNNLSFTETSAL [I19T], which protein stability index is on record?
Answer: 4.11

Question: For AVPTDEARAFAEKNNLSFAETSAL [I19A], which protein stability index is on record?
Answer: 4.6

Question: Which protein stability index does the source give for AVPTDEARAFAEKNNLSFDETSAL [I19D] here?
Answer: 4.99

Question: With AVPTDEARAFAEKNNLSFRETSAL [I19R] as the variant, how does the protein stability index read?
Answer: 4.54

Question: For AVPTDEARAFAEKNNLSFQETSAL [I19Q], which protein stability index is on record?
Answer: 4.38

Question: For AVPTDEARAFAEKNNLSFLETSAL [I19L], which protein stability index is on record?
Answer: 3.25

Question: With AVPTDEARAFAEKNNLSFIEGSAL [T21G] as the variant, how does the protein stability index read?
Answer: 2.38

Question: Which protein stability index does the source give for AVPTDEARAFAEKNNLSFIEYSAL [T21Y] here?
Answer: 2

Question: For AVPTDEARAFAEKNNLSFIEQSAL [T21Q], which protein stability index is on record?
Answer: 4.12
